The text below walks through data of PMC2720631.

The target of the test is TRIP8b (mouse (endogenous in forebrain cortex)) (UniProt Q8C437). Briefly: co-IP.
UniProt Q8C437, sequence (Q8C437 whole entry): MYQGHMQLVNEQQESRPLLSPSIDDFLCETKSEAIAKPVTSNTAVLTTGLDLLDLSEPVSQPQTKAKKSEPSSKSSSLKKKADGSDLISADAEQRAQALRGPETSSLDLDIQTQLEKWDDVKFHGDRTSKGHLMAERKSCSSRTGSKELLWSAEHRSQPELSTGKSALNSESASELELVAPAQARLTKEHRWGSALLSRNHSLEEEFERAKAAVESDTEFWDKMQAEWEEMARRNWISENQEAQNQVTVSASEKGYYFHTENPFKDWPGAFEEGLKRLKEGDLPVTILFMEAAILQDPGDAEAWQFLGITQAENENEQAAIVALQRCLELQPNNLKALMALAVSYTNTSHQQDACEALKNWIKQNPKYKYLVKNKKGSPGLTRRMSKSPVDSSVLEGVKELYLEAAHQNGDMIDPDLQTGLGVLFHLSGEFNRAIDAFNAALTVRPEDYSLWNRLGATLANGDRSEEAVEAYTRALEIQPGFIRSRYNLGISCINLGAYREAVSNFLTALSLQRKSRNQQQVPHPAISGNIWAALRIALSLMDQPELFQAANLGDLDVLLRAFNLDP

HCN1, sequence (O88704 whole entry): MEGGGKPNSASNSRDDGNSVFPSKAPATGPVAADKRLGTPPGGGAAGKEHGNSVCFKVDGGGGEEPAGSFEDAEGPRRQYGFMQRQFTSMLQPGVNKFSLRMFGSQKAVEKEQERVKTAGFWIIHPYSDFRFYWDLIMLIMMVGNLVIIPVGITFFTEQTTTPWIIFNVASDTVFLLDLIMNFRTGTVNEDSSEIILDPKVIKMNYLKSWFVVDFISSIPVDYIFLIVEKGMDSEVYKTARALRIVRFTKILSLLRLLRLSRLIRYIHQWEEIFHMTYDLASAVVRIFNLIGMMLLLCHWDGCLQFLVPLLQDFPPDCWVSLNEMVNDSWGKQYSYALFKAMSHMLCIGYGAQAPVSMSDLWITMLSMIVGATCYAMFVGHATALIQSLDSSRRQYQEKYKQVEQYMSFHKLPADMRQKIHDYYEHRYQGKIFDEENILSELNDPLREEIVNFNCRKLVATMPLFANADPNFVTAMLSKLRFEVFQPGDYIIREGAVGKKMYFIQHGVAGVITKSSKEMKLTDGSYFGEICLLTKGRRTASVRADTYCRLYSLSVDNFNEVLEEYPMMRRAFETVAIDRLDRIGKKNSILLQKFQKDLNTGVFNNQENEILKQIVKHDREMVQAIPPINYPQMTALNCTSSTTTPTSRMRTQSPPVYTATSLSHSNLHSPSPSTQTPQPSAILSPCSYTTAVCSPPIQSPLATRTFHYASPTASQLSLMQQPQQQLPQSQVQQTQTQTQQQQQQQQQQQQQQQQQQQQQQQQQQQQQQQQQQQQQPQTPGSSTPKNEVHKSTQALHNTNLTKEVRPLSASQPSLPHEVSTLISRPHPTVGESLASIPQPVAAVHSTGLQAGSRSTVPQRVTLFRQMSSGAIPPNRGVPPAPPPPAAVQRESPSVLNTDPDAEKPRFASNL

On to “HCN1 (from UniProt O88704 1-910) (natural protein)”, for which the percent of HCN1 co-immunoprecipitated is below 50%.
